In the domain aggregation screens of Martell et al. (2025):

Assay: soluble fraction after stress (log2 fold change); higher = more stays soluble; pooled small domains, quantitative proteomics
Conditions: stress: pH 4
Summary of the method: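 Following acid stress at pH 4, the amount of each small protein domain still soluble was measured in pooled custom libraries by high-throughput quantitative proteomics. Its fold change, on a log2 scale, is higher when more of the domain stayed soluble. This fold change is taken as a measure of aggregation propensity.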

“HMPASVSAIRKYLGGGSFKGVGPALAKRIVDAFGEYTIETIENDPKQLAKVKGVSEKMALEINTQ” and “HMPAYYQKEAVLDGRASVFAYERDPSSWYFKQLIPGTKKYRTKKIQGATTLEQAKSQALDIALGLRDEP” are within 0.2 log units of each other in “soluble fraction (log2)” value: 0.112 for the first, 0.243 for the second.

Compared with “HMPDDHFIRGYVTAVLEQVLKVPSIQVEVERGVVILRGDLPGEERQELLDAVSRIHGVARVEYIPL”, “HMPDLSGEEQQIVDILAQRGNLQINTLVVETDIPVHKMNAILFELEMKGVVRVLAGGMYQLL” is lower in “soluble fraction (log2)” value: -0.281 for the first, -0.561 for the second.

First: HMPDPLVEIRSAVHSNYAGMIAMLGADNRVYLGREEHYSYQDGQPGQYDNRDGSLLFVSDQPDIYYFL
Second: HMPEAITLRDLKTYSKQAASGYLDDHQLVLVEKEAHSEDVPEGQVIKQKPGAGASVKPGDKVEVTFSLGPE
The “soluble fraction (log2)” value of the first is lower: -1.21 for the first, 0.22 for the second.

“HMPEKKKYGDFVSMTEEEYGKLVSEYGQEAAKRMVEILNNYKGATGKPYKSDYLAILNWVVKRIKEE” and “HMPELFLFNPDTASAATFQALGFSARQAGVLIHFREALGGRFGSVEQFSKSYVVDSATLERLRPYMVF” are within 0.2 log units of each other in “soluble fraction (log2)” value: 0.077 for the first, -0.029 for the second.

First: HMPEMHIYTKEGKIHITHIDENEEIKIYNPLGQIIYTGSPQDIPVLEGKGLYIIYIGKSAVEVLES
Second: HMPENESPEEKHARFRRFAEGLMARLDENESVRDILPELKVWLDDRELDRDDQRLARNLMLTAGKRE
The “soluble fraction (log2)” value of the first is lower: -0.624 for the first, -0.0664 for the second.

Going from “HMPEPLTARETEVLRLLSGGYSNREIAAAMFLAEGTIKNHVSAVLLKLGVRDRTRAVLRGLELGLIQ” to “HMPEPPRVGETLAALRQDRALSLDELSRQAGVSKSMLSQIERNQANPTVAVVWRLANALGVPMAELLGA”, the “soluble fraction (log2)” value rises from -1.4 to -0.192.

“HMPGDIRKAAILLMSLPREQAAQVLARLDPKQVEAVTIEIARLGTVTPDEQEQALKEFSQANPA” and “HMPGIDDAAVEHAERVLAQHIGPMARLLVRRTVPRAANLFDLHRRLGALIPESEPRTAFLSAVVT” are within 0.2 log units of each other in “soluble fraction (log2)” value: -0.141 for the first, 0.0209 for the second.

“HMPGLSQAEAQSLLIAYLAQQGRTLELIPLGQSGDVWRFSGRESDGTVVSFFMVSRTDGTISEVPVPP” and “HMPGRLSRREVEVIELTARGLPAAEMAVRLGISANTIEFHRRRIMQKLGVANAAEMVRRATELGW” are within 0.2 log units of each other in “soluble fraction (log2)” value: -0.992 for the first, -0.905 for the second.

Going from “HMPGRVITVMVNGKRVDLPFREEPYIFVDLFRYMDFDVERARGRIQLAINGKKAGYTDIIREGDSIEI” to “HMPGTAAQARQLKAWLKENGEKPGAALPALQKAQEIYGYVPREVQQLIADALHKPLTEIYGVSTFYSQFNL”, the “soluble fraction (log2)” value rises from -1.02 to -0.326.

“HMPGTPADQVAELQTKVGTETKTGDMITQDDVKLLQTALDPLAKMNDRIQAAKILESKGIVTSDGNLRT” and “HMPIGENIKRLRIMHGLSQKELAQIAGVSDKAVSTWENGTKEPRMGAVQKITGYFGLKKSNLIEDNGL” are within 0.2 log units of each other in “soluble fraction (log2)” value: 0.0934 for the first, 0.0537 for the second.

Compared with “HMPIMDSDDKYEALGIPQEWIAVVKKAGYQTVEALKAVENPNKLHQELSVMNKKEKLGLAGLTPEMVKAWL”, “HMPINPKVKQIYDTLKDGGADVGSEKEFNDYFFAKGKDGYNNRKEVFNTLREGGADAGKSYEEFAGWLGL” is higher in “soluble fraction (log2)” value: -0.301 for the first, 0.206 for the second.

Compared with “HMPIPIESEISRSPGQSIYAFVQQHYGRSGRSPADMRALVGLILRLNRQIRTPLLIPFGLVVVRPT”, “HMPIRVGDAFESLAGVFPDEYNKALRKSTKKPVFFVPVKVEAGSGALRQKGKITFIVKDGRIDAIQIAL” is lower in “soluble fraction (log2)” value: -0.253 for the first, -0.514 for the second.

Compared with “HMPISQGATVKHNANMRKGASTKYKVTGVLQEGEEVKILSQSNGWYKIQNSDNEKGWTYNTHINASDK”, “HMPKHFIDFSEGEVVSITDGPFKGFDGAISEIDNQKGKVKVMVSMFGRDTSVELDALQVKKV” is lower in “soluble fraction (log2)” value: -0.0274 for the first, -0.364 for the second.

“HMPKITTIHIDPEKISKVIGPGGKTVKKIIEETGAKIDIEDTGKIFIAAVNTEAANKAIDMINGIVA” and “HMPKLPIIYVLDGHVNKNALTTSGKNKVWIEHELKKHHINSIKDVLIAMTDTEGKFYYQLYD” are within 0.2 log units of each other in “soluble fraction (log2)” value: -0.0168 for the first, -0.0791 for the second.

“HMPKLSNNHMAVWQAIRSRTAKGEPSTRAVIRDDLKAAGMDTSKHFSRWLTKLIDLGMVVKDGENLSIR” and “HMPKMISPAQIKAIGAKTNNIAKASGVEQAQVYQSAVAHLGINNKSTKELTSQEASKVIEYLSTL” are within 0.2 log units of each other in “soluble fraction (log2)” value: 0.219 for the first, 0.158 for the second.

First: HMPKPMKATKITLQQEPRIRVDFTYDPLKVQQIKTISGARWSKSLKAWHIPYTKEAFNQLKKLFPNVEIEV
Second: HMPKSVRQSFVYSPMYRDVEYLADFLRNNNKDDSSVSASGDKLVYYGTADEIARVKSVLKGVDV
The “soluble fraction (log2)” value of the first is higher: 0.22 for the first, -0.51 for the second.

Compared with “HMPLIPIAIELARHALPSLIGAIAGDKSEKVAKEVVDAALKTTGKTTPDEALHALQADPQLAHEYRLSLL”, “HMPLKLIDVYLGRHGKKRYDVFKETGLSQQTLASANGKPAAALTGRILQAIGRTVGETPGRVLDEMLMIEQ” is higher in “soluble fraction (log2)” value: -0.466 for the first, 0.0887 for the second.

First: HMPLLADLPNLLRKVLKQHPGRVVDVDLERGRQGREIYHVRVLQENGQVRGLFVDASTGELVS
Second: HMPLQLPEPMAELARNGETARLAEALKQGLDIDLRDGKGNTLLMIAAYQGRAETVAMLLKAGA
The “soluble fraction (log2)” value of the first is higher: 0.0524 for the first, -1.42 for the second.

Compared with “HMPLSLESVSEGGRNDTAARIAGYLIAKGLNVDFARFFLQSWNTKNKPPLDDTEIDTIVNSIMKTHERKNQ”, “HMPLTPATADAGRFVKQDRKYIRLLAKRYNFTHGDIKSEIDRVSAVLSSNGIDRVPLFLYKEYLEQYLAG” is lower in “soluble fraction (log2)” value: -0.476 for the first, -0.924 for the second.

Going from “HMPLTRSDVKRIQLWLMAHGYDIGSPDGVFGDKSNRAANAFLSQQGRSLETVTLGKLYDILEAN” to “HMPMINLYQRLNLPPTASRAEIEAALAQYRSELSTAEIRGVQEWLLVNEVRHRYDAKLRQEQPSFFI”, the “soluble fraction (log2)” value rises from -0.941 to -0.427.

“HMPMTLGENIARLRTQKDWSQGDLADALGISRQSISKWETDTSIPELEKLIKLSELFGVTLDQLVRGE” and “HMPNILLSVKDASVAISVSSKMVRLLIASGRLKAVNLGKRMTRISLQELTDFAQRQGGNVVLP” are within 0.2 log units of each other in “soluble fraction (log2)” value: -0.615 for the first, -0.514 for the second.

“HMPNLAAAIGARVTIRLREASGGFRDIVGTLQRFGDGVNELLNSKGQIISFSEDEIAIWREIK” and “HMPNQIKQIAVNTASVSDIATIPGISFDFAKEIWEFRILRQKIGSLSELQKIEGMTASKYALIELYLHI” are within 0.2 log units of each other in “soluble fraction (log2)” value: -0.326 for the first, -0.41 for the second.

“HMPNSIKAPAYLHNIARIYDHVLIDVEKASSAYEKLIKKYPNHPLSINAKLYLENAFNRSDEELLNMIKEN” and “HMPNYVEMLRLHEAGFSLRQIAKLVSSGRNTVTRTVNIAQEKELSYEEIAQWSSEELENMFKPD” are within 0.2 log units of each other in “soluble fraction (log2)” value: -0.624 for the first, -0.515 for the second.

First: HMPPDIKVVGVTVASDPRASFAMLSSNGKTLSYRVNDLIEGTEYHLIKVEAAAITIATAGGQSTQIAF
Second: HMPPFTYHLERAKRKTVGFIVDERGVTVRAPRWVSVSEIEKMLQTKEAWIQKKLTEFHNWQKE
The “soluble fraction (log2)” value of the first is lower: -0.156 for the first, 0.111 for the second.

Going from “HMPPHGHIVELLPEQDFGRIETGDGRLVYFHRNSVLDGDFAQLAVGDAVRFAEEMGERGPQASSVHVE” to “HMPPLKYLKVKSYLEAVAVKAESAMRMPTVRELMNQFNVSLATVNRALSELENDGVIVRRQGSGIVAAG”, the “soluble fraction (log2)” value rises from -0.948 to at least 0.43.

Going from “HMPPSGPWEQDPPSEAQLKPFNEAMKRTADIDVDLYEKAKKALNDGTITKGNIYDWINREDSPWVLQDGS” to “HMPPSQRVNRILSLAGITSRRKADEYILEGRVTVNGEVLKEPGAKAVWGTDDIRVDGKPIPALS”, the “soluble fraction (log2)” value rises from -0.468 to 0.275.

“HMPPSVAETLKRLRRHKSLSLEELAQMSGVSRSMLSQIERDATNPTVATLWRITAALGVSIDEVLGV” and “HMPPTEQVYRSHVPPQYDGFPIEKYFTTRFSYQDVEEWSRQILAGKIEVNGKTALIGQILSASDLTVTRA” are within 0.2 log units of each other in “soluble fraction (log2)” value: -0.893 for the first, -0.811 for the second.

For “HMPQETPIPKSEIQSYDEIWLEPISTDNILRNELRGWYHVKDRWVENEFGNRFYLDTYASKWLAFPS”, the “soluble fraction (log2)” value was -0.752.
